Laboratory results taken from article PMC6260798 (Biochemistry, 2018).
Where two headings read alike, the source gives them in different places.

Key:
UreE [1] = biological target: T1, UreE (Helicobacter pylori, UniProt Q09064); experiment: ITC
T1 chain: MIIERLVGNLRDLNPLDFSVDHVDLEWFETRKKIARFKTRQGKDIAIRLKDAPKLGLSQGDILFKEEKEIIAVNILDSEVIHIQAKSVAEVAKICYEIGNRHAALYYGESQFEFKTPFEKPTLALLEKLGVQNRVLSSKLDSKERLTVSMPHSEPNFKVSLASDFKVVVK

UreE [2] = biological target: T1, UreE; experiment: fluorescence titration
[3] = biological target: T2, Helicobacter pylori UreE homodimer (UreE2) (Helicobacter pylori, UniProt Q09064 1-170); experiment: SEC-MALS
T2 sequence: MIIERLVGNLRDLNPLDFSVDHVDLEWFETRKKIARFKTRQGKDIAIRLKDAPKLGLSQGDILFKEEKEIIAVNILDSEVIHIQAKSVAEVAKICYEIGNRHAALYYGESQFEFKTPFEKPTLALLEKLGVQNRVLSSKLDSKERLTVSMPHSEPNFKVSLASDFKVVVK

[4] = biological target: T2, Helicobacter pylori UreE homodimer …; experiment: ITC
[5] = biological target: T2, Helicobacter pylori UreE homodimer …; experiment: ITC; remark: listed apart in the source

B1: HypA (protein)
chain: MHEYSVVSSLIALCEEHAKKNQAHKIERVVVGIGERSAMDKSLFVSAFETFREESLVCKDAILDIVDEKVELECKDCSHVFKPNALDYGVCEKCHSKNVIITQGNEMRLLSLEMLAE
modifications: Ni,Zn-HypA
UreE [1]
  Kd: ~0.0006 µM

B2: HypA (protein)
chain: MHEYSVVSSLIALCEEHAKKNQAHKIERVVVGIGERSAMDKSLFVSAFETFREESLVCKDAILDIVDEKVELECKDCSHVFKPNALDYGVCEKCHSKNVIITQGNEMRLLSLEMLAE
modifications: apo,Zn-HypA, NHS640-labelled UreE2
UreE [2]
  Kd: ~2 µM

B3: Helicobacter pylori HypA (wild type; apo,Zn-HypA or Ni,Zn-HypA) (natural protein, UniProt P0A0U4 1-117, looked up)
chain: MHEYSVVSSLIALCEEHAKKNQAHKIERVVVGIGERSAMDKSLFVSAFETFREESLVCKDAILDIVDEKVELECKDCSHVFKPNALDYGVCEKCHSKNVIITQGNEMRLLSLEMLAE
[3]
  stoichiometry N: 1 HypA per UreE2
[4]
  Kd: 1.2 µM
  stoichiometry N: 1.4 Sites
[5]
  Kd: 0.9 µM
  stoichiometry N: 1.4 Sites
